Patent US12310324B2, “Compositions and methods for minimizing nornicotine synthesis in tobacco” (North Carolina State University, priority 2010, dated 2025)
Residue numbers refer to the chain shown, from its start. Names and notes keep the numbering of the source. Marks after values point to notes of the source that are not given here.

What was measured:
[1] = test system: CN1CCC[C@H]1c1cccnc1; assay: Nicotine demethylase assay, yeast microsomal membrane preparations incubated with [^14C]-nicotine, products resolved by thin layer chromatography; assay type: biochemical, Nicotiana tabacum; conditions: other: substrate saturation curve across a wide range of [^14C]-nicotine concentrations; microsomes from yeast strain W(R) expressing CYP82E10 cDNA
Description: (§1) To determine whether CYP82E10 functions as a nicotine demethylase gene, its cDNA was cloned into the yeast expression vector pYeDP60 and transformed into yeast strain W(R). Strain W(R) is a yeast cell line that was engineered to overexpress the yeast NADPH-dependent P450 reductase, an enzyme that serves as the direct electron donor to P450s; this system greatly enhances the detection of foreign P450 enzyme activities that are expressed in yeast (Pompon et al., 1995). Nicotine demethylase assays were conducted by incubating yeast microsomal membrane preparations with [^14C]-nicotine, and resolving the products by thin layer chromatography as described in Siminszky et al. (2005).

[2] = test system: CYP82E10 nicotine demethylase; assay: Nicotine demethylase assay, yeast microsomal membranes with [14C]-nicotine, CYP82E10 and variants; assay type: biochemical, tobacco
Description: as §1
The nucleotide and amino acid residues mutated in these plants are also highlighted in FIG. 1. Although no truncation mutations were observed among these individuals, in several cases, mutations were identified that altered an amino acid residue within a highly conserved region of the enzyme. To determine the effects of a particular mutation on CYP82E10 enzyme activity, site-directed mutagenesis was used to introduce the specific mutations corresponding to seven of the nine mutations shown in Table 2 into the CYP82E10 cDNA within the pYeDP60 yeast expression vector. Microsomal preparations from yeast strains expressing each of the seven CYP82E10 variants were assayed in vitro for nicotine demethylase activity using both non-saturating (2.45 μM) and saturating (50 μM) concentrations of [^14C]-nicotine.

[3] = test system: CYP82E10 nicotine demethylase; assay: as above; assay type: biochemical, tobacco; conditions: at the 25 μM substrate level
[4] = test system: CYP82E10 nicotine demethylase; assay type: cell-based, tobacco; conditions: cultures shaken overnight with 55 μM [14C]-nicotine, methanol extract, TLC
Experimental: Nicotine demethylase activities of wild type and 1041 mutant CYP82E10-expressing yeast cells was also assayed in vivo.

[5] = target: CYP82E4 nicotine demethylase (Nicotiana tabacum, UniProt Q38Q87, V376M)
[6] = test system: CYP82E4 nicotine demethylase
[7] = test system: CYP82E4v2 nicotine demethylase; assay type: biochemical, tobacco; conditions: counts per minute of [14C]-nornicotine/mg microsomal protein; ± SD of two technical replications
Description: as §1
The thin layer chromatographic data for the in vitro yeast expression assays corresponding to the plant 1041 mutation are shown in FIG. 3. This particular mutation was selected for more extensive investigation. To provide additional confirmation that the Pro to Ser substitution at amino acid position 381 that defines the plant 1041 mutation is incompatible with nicotine demethylation function, this same mutation was introduced into a CYP82E4v2 cDNA that had been similarly cloned into the pYeDP60 vector. […] Whether introduced into the CYP82E10 or CYP82E4v2 enzymes, a Ser substitution for Pro at position 381 leads to the complete ablation of nicotine demethylase activity in this assay.

[8] = test system: CYP82E5 nicotine demethylase; assay: Nicotine demethylase activity of CYP82E5 variants (method not described); assay type: biochemical, tobacco
[9] = counts per minute of [14C]-nornicotine/mg microsomal protein, ± SD of two technical replications

Chain of CYP82E4 nicotine demethylase (Nicotiana tabacum, UniProt Q38Q87, V376M) (Q38Q87 whole entry V376M): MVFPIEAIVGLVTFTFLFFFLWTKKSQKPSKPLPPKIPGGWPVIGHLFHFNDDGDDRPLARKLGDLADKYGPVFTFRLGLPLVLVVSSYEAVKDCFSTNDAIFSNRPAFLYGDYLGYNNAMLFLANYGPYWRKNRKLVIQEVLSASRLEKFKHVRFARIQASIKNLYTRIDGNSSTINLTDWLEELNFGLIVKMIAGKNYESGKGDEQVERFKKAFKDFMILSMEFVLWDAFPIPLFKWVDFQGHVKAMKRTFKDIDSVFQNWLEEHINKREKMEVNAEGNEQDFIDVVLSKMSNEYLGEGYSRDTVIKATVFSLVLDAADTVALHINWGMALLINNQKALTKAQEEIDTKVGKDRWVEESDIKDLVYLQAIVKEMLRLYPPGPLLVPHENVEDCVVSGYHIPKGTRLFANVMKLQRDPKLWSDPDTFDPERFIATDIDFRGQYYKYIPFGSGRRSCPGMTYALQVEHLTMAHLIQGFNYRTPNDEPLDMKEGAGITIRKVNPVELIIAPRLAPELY

## Nicotiana tabacum CYP82E10 nicotine demethylase, wild type, SEQ ID NO:2 (Nicotiana tabacum)
[1]
  Km: 3.9 µM

B1: CYP82E10: wild type root-specific tobacco nicotine demethylase (cytochrome P450) expressed in yeast (protein, listed as Nicotiana tabacum)
chain: MVSPVEAIVGLVTLTLLFYFIRTKKSQKPSKPLPPKIPGGWPVIGHLFYFDDDSDDRPLARKLGDLADKYGPVFTFRLGLPLVLVVSSYEAIKDCFSTNDAIFSNRPAFLYGEYLGYNNAMLFLTKYGPYWRKNRKLVIQEVLCASRLEKLKHVRFGEIQTSIKNLYTRIDGNSSTINLTDWLEELNFGLIVKMIAGKNYESGKGDEQVERFRKAFKDFIILSMEFVLWDAFPIPLFKWVDFQGHVKAMKRTFKDIDSVFQNWLEEHVKKKEKMEVNAEGNEQDFIDVVLSKMSNEYLDEGYSRDTVIKATVFSLVLDAADTVALHMNWGMALLINNQHALKKAQEEIDKKVGKDRWVEESDIKDLVYLQTIVKEVLRLYPPGPLLVPHENVEDCVVSGYHIPKGTRLFANVMKLQRDPKLWSNPDKFDPERFFAADIDFRGQHYEFIPFGSGRRSCPGMTYAMQVEHLTIAHLIQGFNYKTPNDEPLDMKEGAGLTIRKVNPIEVVITPRLTPELY
[2]; [9]
  CPM nornicotine at 2.45 μM [14C]-nicotine substrate: 2,296 ± 99 ^ CPM
  CPM nornicotine at 50.0 μM [14C]-nicotine substrate: 15,253 ± 465 CPM
[2]; yeast microsomes, [14C]-nicotine
  nicotine demethylase (enzyme) activity, result in words: very robust nicotine demethylase activity
[3]
  rate of [14C]-nornicotine synthesis relative to preparations containing CYP82E4v2: nearly three times greater
[4]
  nornicotine detected in extracts of yeast: could be detected

B2: CYP82E4 V376M: CYP82E4 variant with methionine for valine at position 376 (protein, listed as Nicotiana tabacum)
chain: MLSPIEAIVGLVTFTFLFFFLWTKKSQKPSKPLPPKIPGGWPVIGHLFHFNDDGDDRPLARKLGDLADKYGPVFTFRLGLPLVLVVSSYEAVKDCFSTNDAIFSNRPAFLYGDYLGYNNAMLFLANYGPYWRKNRKLVIQEVLSASRLEKFKHVRFARIQASIKNLYTRIDGNSSTINLTDWLEELNFGLIVKMIAGKNYESGKGDEQVERFKKAFKDFMILSMEFVLWDAFPIPLFKWVDFQGHVKAMKRTFKDIDSVFQNWLEEHINKREKMEVNAEGNEQDFIDVVLSKMSNEYLGEGYSRDTVIKATVFSLVLDAADTVALHINWGMALLINNQKALTKAQEEIDTKVGKDRWVEESDIKDLVYLQAIVKEMLRLYPPGPLLVPHENVEDCVVSGYHIPKGTRLFANVMKLQRDPKLWSDPDTFDPERFIATDIDFRGQYYKYIPFGSGRRSCPGMTYALQVEHLTMAHLIQGFNYRTPNDEPLDMKEGAGITIRKVNPVELIIAPRLAPELY
modifications: CYP82E4 V376M Variant
[5]
  nicotine demethylase activity relative to the wild-type CYP82E4 polypeptide: about 50%

B3: CYP82E4 P458S: CYP82E4 variant with serine for proline at position 458 (protein, listed as Nicotiana tabacum)
chain: B2 chain with M376V, P458S
modifications: CYP82E4 P458S Variant
[6]
  inhibition of nicotine demethylase activity (knocked out): 100%

B4: pYeDP60-CYPE4v2: wild type senescence-induced tobacco nicotine demethylase CYP82E4v2 expressed in yeast (protein, listed as Nicotiana tabacum)
chain: B2 chain with M376V, G459R
[7]
  CPM nornicotine at 2.45 μM [14C]-nicotine substrate: 1,813 ± 623^b CPM
  CPM nornicotine at 50.0 μM [14C]-nicotine substrate: 5,383 ± 505 CPM

B5: pYeDP60-CYPE4v2/1041: CYP82E4v2 enzyme possessing the 1041 mutation (Pro381Ser) (protein, listed as Nicotiana tabacum)
chain: B2 chain with M376V, P382S
modifications: CYP82E4 P382S Variant
[7]
  CPM nornicotine at 2.45 μM [14C]-nicotine substrate: Not detected
  CPM nornicotine at 50.0 μM [14C]-nicotine substrate: Not detected
[6]
  inhibition of nicotine demethylase activity (knocked out): 100%

B6: CYP82E5 P449L: CYP82E5 variant with leucine for proline at position 449 (protein, listed as Nicotiana tabacum)
chain: MVSPVEAIVGLVTLTLLFYFLWPKKFQIPSKPLPPKIPGGWPVIGHLFYFDDDGDDRPLARKLGDLADKYGPVFTFRLGLPLVLVVSSYEAVKDCFSTNDAIFSNRPAFLYGEYLGYSNAMLFLTKYGPYWRKNRKLVIQEVLSASRLEKLKHVRFGKIQTSIKSLYTRIDGNSSTINLTDWLEELNFGLIVKMIAGKNYESGKGDEQVERFRKAFKDFIILSMEFVLWDAFPIPLFKWVDFQGHVKAMKRTFKDIDSVFQNWLEEHVKKREKMEVNAQGNEQDFIDVVLSKMSNEYLDEGYSRDTVIKATVFSLVLDAADTVALHMNWGMALLINNQHALKKAQEEIDKKVGKERWVEESDIKDLVYLQAIVKEVLRLYPPGPLLVPHENVEDCVVSGYHIPKGTRLFANVMKLQRDPKLWSNPDKFDPERFFADDIDYRGQHYEFILFGSGRRSCPGMTYALQAEHLTIAHLIQGFNYKTPNDEPLDMKEGAGLTIRKVNPVEVTITARLAPELY
modifications: CYP82E5 P449L
[8]
  effect of mutation on nicotine demethylase activity, in words: inhibition of its nicotine demethylase activity

B7: SEQ ID NO:33: CYP82E5 variant with stop codon for tryptophan at position 422 (protein, listed as Nicotiana tabacum)
chain: MVSPVEAIVGLVTLTLLFYFLWPKKFQIPSKPLPPKIPGGWPVIGHLFYFDDDGDDRPLARKLGDLADKYGPVFTFRLGLPLVLVVSSYEAVKDCFSTNDAIFSNRPAFLYGEYLGYSNAMLFLTKYGPYWRKNRKLVIQEVLSASRLEKLKHVRFGKIQTSIKSLYTRIDGNSSTINLTDWLEELNFGLIVKMIAGKNYESGKGDEQVERFRKAFKDFIILSMEFVLWDAFPIPLFKWVDFQGHVKAMKRTFKDIDSVFQNWLEEHVKKREKMEVNAQGNEQDFIDVVLSKMSNEYLDEGYSRDTVIKATVFSLVLDAADTVALHMNWGMALLINNQHALKKAQEEIDKKVGKERWVEESDIKDLVYLQAIVKEVLRLYPPGPLLVPHENVEDCVVSGYHIPKGTRLFANVMKLQRDPKL
modifications: CYP82E5 W422Stop Variant
[8]
  inhibition of nicotine demethylase activity (knocked out): 100%
